Data taken from PMC11449360.

Target: Recombinant full-length MMTV Gag containing hexa-histidine tag at the C-terminus (Pr77^Gag) (mouse mammary tumor virus (MMTV))
Experiment: dynamic light scattering; purified Pr77^Gag-His6 alone in storage buffer (50 mM Tris-HCl pH 8.0, 1 M NaCl); the hydrodynamic radius (about 6.00 nm) from volume and number distributions is read as the oligomer's size

## Recombinant full-length MMTV Gag containing hexa-histidine tag at the C-terminus (Pr77^Gag) (natural protein)
  stoichiometry N: 3
